From PMC6557989 (2019) come the findings set out here.

Assay [1] concerns the target pooled human IgG (IVIG; Kiovig) (human). The assay is described as follows: SEC; n = 1.1 binding sites per Protein H. (SEC sorts molecules by how far they enter the pores of the column.)
The target of assay [2] is T1, C4b-binding protein (C4BP), human, purified from plasma (human, UniProt P04003 49-597; P20851 18-252, ^125I-labelled in the binding assay on bacteria).
T1 chain 1: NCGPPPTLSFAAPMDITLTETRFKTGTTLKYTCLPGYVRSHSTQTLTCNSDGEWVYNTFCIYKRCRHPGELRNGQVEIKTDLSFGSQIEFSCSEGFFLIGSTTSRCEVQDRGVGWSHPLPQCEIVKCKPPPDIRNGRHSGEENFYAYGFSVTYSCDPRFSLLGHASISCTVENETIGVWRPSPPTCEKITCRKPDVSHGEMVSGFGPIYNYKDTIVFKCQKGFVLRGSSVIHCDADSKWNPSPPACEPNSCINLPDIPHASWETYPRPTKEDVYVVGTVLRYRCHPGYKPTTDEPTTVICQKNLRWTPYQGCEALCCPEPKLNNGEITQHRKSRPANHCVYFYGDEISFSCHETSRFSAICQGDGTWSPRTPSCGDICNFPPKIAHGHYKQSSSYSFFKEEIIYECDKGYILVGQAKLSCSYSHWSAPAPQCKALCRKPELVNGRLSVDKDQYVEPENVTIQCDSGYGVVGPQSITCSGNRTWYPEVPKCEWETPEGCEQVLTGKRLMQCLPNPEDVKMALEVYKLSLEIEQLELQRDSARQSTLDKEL
T1 chain 2: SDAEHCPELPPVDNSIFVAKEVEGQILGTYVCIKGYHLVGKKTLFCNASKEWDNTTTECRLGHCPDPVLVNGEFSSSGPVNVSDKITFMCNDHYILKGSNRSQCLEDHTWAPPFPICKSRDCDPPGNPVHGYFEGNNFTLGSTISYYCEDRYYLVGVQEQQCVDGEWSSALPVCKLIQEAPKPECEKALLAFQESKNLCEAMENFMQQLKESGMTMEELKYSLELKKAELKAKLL
The assay is described as follows: SEC; n = 26 binding sites per C4BP.

B1: Protein H (natural protein)
chain: EGAKIDWQEEYKKLDEDNAKLVEVVETTSLENEKLKSENEENKKNLDKLSKENQGKLEKLELDYLKKLDHEHKEHQKEQQEQEERQKNQEQLERKYQREVEKRYQEQLQKQQQLETEKQISEASRKSLSRDLEASRAAKKDLEAEHQKLEAEHQKLKEDKQISDASRQGLSRDLEASRAAKKELEANHQKLEAEHQKLKEDKQISDASRQGLSRDLEASRAAKKELEANHQKLEAEAKALKEQLAKQAEELAKLRAGKASDSQTPDTKPGNKAVPGKGQAPQAGTKPNQNKAPMKETKRQLPST
modifications: ^125I-labelled in the plate binding assay; Alexa-488 succinimidyl ester-labelled in thermophoresis; unlabelled elsewhere
For orientation: Kd means a measure of binding affinity in units of concentration. Consider B1, for which the Kd amounted to 78 nM in assay [1] and 1300 nM in assay [2].
